Assay results reported in publication doi:10.1101/2025.11.10.687665.

Biological target: streptavidin 2 (Sav2) (Streptomyces avidinii)

## streptavidin 2 (Sav2) (domain or fragment)
  stoichiometry N: 4
